From patent US20220041665A1, “POLYNUCLEOTIDE AND USES THEREOF” (Helsingin yliopisto, priority 2019, published 2022)

Key:
Assay type in all cases: cell-based, human
[1] = test system: A549 cells with tagged EGFR; test: EGF uptake in A549 cells with tagged EGFR; conditions: EGFR-OsTIR1 cells
Procedure: A549 cells were seeded at 0.4×10^5 cells per 4-well for 3 days. Medium was changed to fresh medium with or without 0.5 mM IAA for 1 h. Cells were washed twice with ice-cold serum free medium with 1% BSA and 0.2 ml of 2 μg/ml Alexa Fluor™ 647 EGF complex (ThermoFisher, E35351) in serum free medium with 1% BSA was added. Cells were further incubated at 37° C. for 20 min before harvesting with trypsin. Samples were kept on ice before FACS analysis. Alexa Fluor™ 647 was excited with 640 nm laser and detected with 720/40 detector, analysing 20 000 cells per sample. Negative control samples were cells incubated in medium without EGF complex. Background subtracted mean fluorescence intensity was used for analysis.

[2] = test system: endogenous target proteins tagged with miniIAA7-mEGFP; test: FACS of mean GFP intensity in cells with endogenously miniIAA7-mEGFP-tagged targets and auxin perceptive proteins
Procedure: (§1) For FACS analysis, cells were seeded at 1:5 (for A431) or 1:3 (for A549) into 6-well plate in medium without selection on day 0. On day 1, medium was changed to 2 ml fresh medium without (for 0 h and 1 h IAA samples) or with (for 16 h IAA samples) 0.5 mM IAA. On day 2, the 1 h samples were supplemented with 0.5 ml medium containing 2.5 mM IAA (final 0.5 mM) and incubated for 1 h at 37° C. After treatment, cells were detached with 0.5 ml trypsin at 37° C. for 5-8 min (A549) or 8-12 min (A431), put on ice, and transferred to 1.5 ml Eppendorf tubes containing 0.5 ml serum-free CO2 independent medium (Gibco). The cell suspensions were centrifuged at 4° C., resuspended in 0.3 ml ice-cold serum-free FluoroBrite DMEM (Gibco) and stored on ice prior to FACS analysis. FACS analysis was performed on a BD Influx cell sorter (BD Biosciences-US) with 100 μm nozzle at 4-8° C. using BD FACS Sortware. Cells were gated with SSC, FSC and trigger pulse width for singlets and 100 000 cells were analyzed for each sample. GFP was excited with 488 nm laser and detected with 530/40 detector; mCherry was excited with 561 nm lasers and detected with 615/20 detector. Data was analyzed with BD FACS Sortware. Background subtracted mean fluorescence intensity was used for analysis.
Dynein heavy chain (DHC1) and epidermal growth factor receptor (EGFR) were chosen as the first targets. DHC1 is an essential protein that could not be rapidly depleted by using the OsTIR1-miniAID system in a previous study (Natsume et al., 2016, Cell Rep. 15, 210-218). EGFR is a transmembrane receptor with a canonical function in EGF uptake that can be acutely assessed after protein depletion. Endogenous target loci were tagged homozygously in human cells with miniIAA7-mEGFP through Cas9-mediated homology-directed repair (FIG. 3A). DHC1 was tagged homozygously but it was only possible to tag EGFR heterozygously in A431 cells, likely due to its high copy numbers in this cell type (data not shown). […]
Then the overall performance of the AtAFB2-miniIAA7 system in depleting different endogenous proteins was evaluated. […]

seipin-mEGFP = test: FACS screen of auxin perceptive proteins and degrons (mean GFP intensity) in A431 cell pools
Procedure: To search for an improved AID system to solve the issue, a pipeline was first established in human A431 cells to screen AID components (FIG. 2A). Various auxin perceptive proteins and degrons were selected for screening. Several TIR1 and AFB2 proteins from different plant species were tested, as well as degrons derived from AtIAA17 (SEQ ID NO: 3), these including amino acid (aa.) 65-132 (miniAID), aa. 62-109, aa. 71-114. All these degrons were included in the screen. […] These high affinity fragments were tested, assuming higher affinity might translate into more efficient inducible degradation. Degrons with KR dipeptide deletions were tested to see if they would have an effect on enhancing IAA binding affinity, IAA-inducible depletion or as part of a nuclear localization signal. PB1 domain of the AUX/IAA proteins has not been implicated in auxin-inducible degradation, so several other degrons with PB1 domain sequences homologous to miniAID were also tested.
A431 cell pools were generated to stably express different combinations of auxin perceptive protein and degron-fused seipin. Cells were cotransfected with a mixture of three vectors composed of pSH-EFIRES-P expressing an auxin perceptive protein, pSH-EFIRES-B expressing a degron-fused seipin, and pCas9-sgAAVS1 at ratio 3:3:4. Transfected cells were passaged 4-6 h after transfection at 1:5 into 6-well plates. On the next day, cells were selected with 1 μg/ml puromycin (Sigma, P8833) for 2 days, and with 5 μg/ml blasticidin (Gibco, A1113904) for 2 days, then with both antibiotics for at least 6 days before using for FACS analysis.
as §1

B1: OsTIR1: TIR1 derived from Oryza sativa, auxin perceptive protein (protein)
chain: MTYFPEEVVEHIFSFLPAQRDRNTVSLVCKVWYEIERLSRRGVFVGNCYAVRAGRVAARFPNVRALTVKGKPHFADFNLVPPDWGGYAGPWIEAAARGCHGLEELRMKRMVVSDESLELLARSFPRFRALVLISCEGFSTDGLAAVASHCKLLRELDLQENEVEDRGPRWLSCFPDSCTSLVSLNFACIKGEVNAGSLERLVSRSPNLRSLRLNRSVSVDTLAKILLRTPNLEDLGTGNLTDDFQTESYFKLTSALEKCKMLRSLSGFWDASPVCLSFIYPLCAQLTGLNLSYAPTLDASDLTKMISRCVKLQRLWVLDCISDKGLQVVASSCKDLQELRVFPSDFYVAGYSAVTEEGLVAVSLGCPKLNSLLYFCHQMTNAALVTVAKNCPNFTRFRLCILEPGKPDVVTSQPLDEGFGAIVRECKGLQRLSISGLLTDKVFMYIGKYAKQLEMLSIAFAGDSDKGMMHVMNGCKNLRKLEIRDSPFGDAALLGNFARYETMRSLWMSSCNVTLKGCQVLASKMPMLNVEVINERDGSNEMEENHGDLPKVEKLYVYRTTAGARDDAPNFVKIL
[1]
  IAA-independent reduction of EGF uptake: severe IAA-independent reduction
[2]; EGFR-OsTIR1 cells (A549), 0 h IAA
  basal depletion at 0 h IAA: severe basal depletion

B2: miniIAA7: degron composed of AtIAA7 (SEQ ID NO: 1) amino acids 37-104 (protein, listed as Arabidopsis thaliana)
chain: GFSETVDLMLNLQSNKEGSVDLKNVSAVPKEKTTLKDPSKPPAKAQVVGWPPVRNYRKNMMTQQKTSS
seipin-mEGFP; AtAFB2 expressing cells, 1 h IAA
  reduction of GFP at 1 h IAA: best reduction of GFP
seipin-mEGFP; in combination with AtAFB2, 1 h IAA
  efficiency of protein reduction compared to miniAID: over 3 fold

B3: AtAFB2: Arabidopsis thaliana AFB2, auxin perceptive F-box protein (SEQ ID NO: 96) (protein, listed as Arabidopsis thaliana)
chain: MNYFPDEVIEHVFDFVTSHKDRNAISLVCKSWYKIERYSRQKVFIGNCYAINPERLLRRFPCLKSLTLKGKPHFADFNLVPHEWGGFVLPWIEALARSRVGLEELRLKRMVVTDESLELLSRSFVNFKSLVLVSCEGFTTDGLASIAANCRHLRDLDLQENEIDDHRGQWLSCFPDTCTTLVTLNFACLEGETNLVALERLVARSPNLKSLKLNRAVPLDALARLMACAPQIVDLGVGSYENDPDSESYLKLMAVIKKCTSLRSLSGFLEAAPHCLSAFHPICHNLTSLNLSYAAEIHGSHLIKLIQHCKKLQRLWILDSIGDKGLEVVASTCKELQELRVFPSDLLGGGNTAVTEEGLVAISAGCPKLHSILYFCQQMTNAALVTVAKNCPNFIRFRLCILEPNKPDHVTSQPLDEGFGAIVKACKSLRRLSLSGLLTDQVFLYIGMYANQLEMLSIAFAGDTDKGMLYVLNGCKKMKKLEIRDSPFGDTALLADVSKYETMRSLWMSSCEVTLSGCKRLAEKAPWLNVEIINENDNNRMEENGHEGRQKVDKLYLYRTVVGTRMDAPPFVWIL
[2]; DHC1 (A431) and EGFR (A549) tagged with miniIAA7-mEGFP
  auxin-inducible depletion at 1 h IAA and at longer times: efficient auxin-inducible depletion
[2]; DHC1 (A431) and EGFR (A549) tagged with miniIAA7-mEGFP, 0 h IAA
  basal degradation at 0 h IAA: minimal basal degradation
seipin-mEGFP; miniAID as degron, 0 h IAA
  target protein level before IAA addition, compared to OsTIR1: over 5 fold
seipin-mEGFP; miniAID as degron, 0 h IAA, compared to OsTIR1
  basal depletion: minimal basal depletion
seipin-mEGFP; miniAID as degron, 1 h IAA (0.5 mM)
  auxin-inducible depletion at 1 h IAA: inefficient
seipin-mEGFP; miniAID as degron, 16 h IAA (0.5 mM)
  auxin-inducible depletion at 16 h IAA, compared to OsTIR1: similar
